Among the data in patent publication US20240391971A1 are Relative activity ratio (native GDF15 EC50: Fc-GDF15 construct EC50), ERK1/2 phosphorylation HTRF in HEK293T cells expressing human GFRAL and RET values, retold here.

For the assay, the target named is human GFRAL (UniProtKB-Q6UXV0) (human) (UniProt Q6UXV0). Description: cell-based or functional assay.
Chain of human GFRAL (Q6UXV0 19-394): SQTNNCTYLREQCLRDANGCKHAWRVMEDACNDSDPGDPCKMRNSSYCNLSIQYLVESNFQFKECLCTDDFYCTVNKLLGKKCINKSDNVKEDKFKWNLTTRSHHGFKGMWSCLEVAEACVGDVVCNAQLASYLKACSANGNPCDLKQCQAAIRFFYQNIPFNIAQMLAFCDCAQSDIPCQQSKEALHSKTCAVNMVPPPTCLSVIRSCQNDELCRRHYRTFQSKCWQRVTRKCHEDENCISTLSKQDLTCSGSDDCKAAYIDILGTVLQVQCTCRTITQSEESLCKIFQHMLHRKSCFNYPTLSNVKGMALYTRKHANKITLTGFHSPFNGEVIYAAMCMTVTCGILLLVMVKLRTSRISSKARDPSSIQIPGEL

For the substance “native GDF15 (ACROBiosystems, GD5-H5149) (from UniProt Q99988 195-308) (ligand)”, the Relative activity ratio (native GDF15 EC50: Fc-GDF15 construct EC50), ERK1/2 phosphorylation HTRF in HEK293T cells expressing human GFRAL and RET amounted to 1.
